The source of these data is article PMC5063806, “Data for peptide-binding assay with oriented immobilization of GRP78 in Biacore” (Data in Brief, 2016).

This experiment has as its target T1, human GRP78, N-His-tagged (human, UniProt P11021 19-654).
T1 construct: GRP78, human; 6-His tag at the N-terminus; also called N-His-tagged GRP78; not shown: His6, N-terminal, kept
As to the kind of experiment: SPR; modified protocol, Biacore X: N-His-tagged GRP78 covalently immobilised (EDC/NHS, Ni2+ orientation, about 5000~6000 RU) on chip NTA; running buffer HBS-P pH 7.4 with 1 mM glycine; L-peptide 6.25-100 uM; both peptides at 50 uM in Fig. 3; fit with BIAevaluation 4.1, default settings. To be noted: both partners purified.

T1 sequence (P11021 19-654): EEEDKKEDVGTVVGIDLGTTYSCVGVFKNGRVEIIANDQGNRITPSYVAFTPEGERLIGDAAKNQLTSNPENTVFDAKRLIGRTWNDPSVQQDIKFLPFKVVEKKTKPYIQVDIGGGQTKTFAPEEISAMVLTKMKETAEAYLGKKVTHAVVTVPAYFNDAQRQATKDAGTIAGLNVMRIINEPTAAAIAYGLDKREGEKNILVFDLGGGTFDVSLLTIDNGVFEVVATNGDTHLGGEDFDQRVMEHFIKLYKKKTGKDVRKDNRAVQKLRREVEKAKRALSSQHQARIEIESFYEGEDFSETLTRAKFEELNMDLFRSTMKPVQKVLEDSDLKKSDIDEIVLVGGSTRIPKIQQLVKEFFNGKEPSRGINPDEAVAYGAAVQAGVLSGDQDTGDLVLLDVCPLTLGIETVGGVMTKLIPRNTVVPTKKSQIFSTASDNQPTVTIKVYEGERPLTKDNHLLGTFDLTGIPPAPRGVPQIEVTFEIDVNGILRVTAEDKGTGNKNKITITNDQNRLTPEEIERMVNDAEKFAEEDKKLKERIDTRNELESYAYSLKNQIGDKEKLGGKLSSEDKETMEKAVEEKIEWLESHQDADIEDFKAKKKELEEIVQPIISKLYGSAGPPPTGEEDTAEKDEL

Regarding RLLDTNRPLLPY (Probably synthetic) [L-peptide (RLLDTNRPLLPY)], the equilibrium dissociation constant (Kd) is approximately 10 µM.
